Consider one substance from patent US20080075733A1.

Some results are limits rather than exact numbers.

The target of the assay is Fc receptor on THP-1 cells. Description: cell-based or functional assay.

For the substance “human IgG1 (heat aggregated, coated on wells) (antibody)”, the TNF-α secretion from THP-1 cells on coated wells (10 µg/well, heat aggregated) is > 40 ng/well.
